# According to paper PMC4150777 (Nucleic Acids Research, 2014):
# Changes are numbered by the printed parent chain.
# T1: HipBso (Shewanella oneidensis MR-1, UniProt PDB:4PU3_2 1-118)
# T1 sequence: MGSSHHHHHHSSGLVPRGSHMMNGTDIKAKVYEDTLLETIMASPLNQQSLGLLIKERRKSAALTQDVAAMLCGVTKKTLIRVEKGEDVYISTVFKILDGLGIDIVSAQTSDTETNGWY
# T2: HipAso D306Q active site mutant (non-phosphorylated) (Shewanella oneidensis MR-1, UniProt Q8EIX3 1-433, D306Q)
# T2 sequence: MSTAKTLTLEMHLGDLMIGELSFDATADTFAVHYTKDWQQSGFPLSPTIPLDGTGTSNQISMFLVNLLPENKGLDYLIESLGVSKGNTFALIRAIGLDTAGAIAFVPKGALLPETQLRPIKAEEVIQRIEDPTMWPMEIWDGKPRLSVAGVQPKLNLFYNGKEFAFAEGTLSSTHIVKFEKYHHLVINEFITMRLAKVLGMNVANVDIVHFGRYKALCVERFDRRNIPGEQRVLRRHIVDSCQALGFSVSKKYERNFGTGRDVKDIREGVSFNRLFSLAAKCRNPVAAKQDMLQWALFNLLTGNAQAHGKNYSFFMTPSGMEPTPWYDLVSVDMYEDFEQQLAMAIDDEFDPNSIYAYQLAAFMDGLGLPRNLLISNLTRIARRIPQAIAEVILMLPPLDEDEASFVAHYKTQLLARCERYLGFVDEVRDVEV
# B1: hipBAso operator DNA (26 bp) (dsDNA)
# DNA 1: ATTAGGTGTACTTATCTACACTTTTT
# DNA 2: AAAAAGTGTAGATAAGTACACCTAAT
# B2: Shewanella oneidensis MR-1 HipBso (SO0705) (natural protein, UniProt Q8EIX4 1-78, looked up)
# chain: MASPLNQQSLGLLIKERRKSAALTQDVAAMLCGVTKKTLIRVEKGEDVYISTVFKILDGLGIDIVSAQTSDTETNGWY
# B3: Shewanella oneidensis MR-1 HipAso (SO0706), recombinant wild type (enzyme)
# chain: T2 sequence with Q306D
# Columns and labels:
# HipBso = target: T1, HipBso; assay: ITC
# [1] = target: T2, HipAso D306Q active site mutant …; assay: ITC
# SEC = target: the molecule itself; assay: SEC
# [2] = target: B2; assay: ITC
binder,measurement,setting,value
B1,Kd,HipBso,290 nM
B2,Kd,[1],300 nM
same,stoichiometry N,SEC,2
B3,stoichiometry N,[2],2 HipAso per HipBso dimer
